B1: XW25-5D11-4F3-3D11 (antibody, V domains shown)
VH: EVQVQQSGAELVRPGSSVKMSCKTSGYTFTNYGIIWVKQRPGQGLEWIGYIYIGKGYTEYNEKFKGKATLTSDTSSSTVYMQLSSLTSEDSAIYFCARGAHYYGNAMDYWDQGTSVTVSS
VL: DIQMTQTTSSLSASLGDRVTISCRSSQDISNFLNWYQQRPDGTVKLLIYYTSRLHSGVPSRFSGSGSGTDYSLTISNLEQEDIATYFCQQGDTLPWTFGGGTKLEIKR
notes: Mouse anti-mouse CXCL13 monoclonal antibody purified from hybridoma
B2: XW25-2C4-4H8 (antibody, V domains shown)
VH: QVQLQQPGTELVKPGASVKLSCKASGYNFATYWMHWVKQRPGQGLEWIGNINPSDGGTNFNEKFNNKATLTVDKSSSTAYMQLSSLTSEDSAVYYCAKWGGHYVLYWYFDVWGTGTTVTVSS
VL: DIVLTQSPATLSVTPGDSVSLSCRASQSISSNLHWYQQKSHESPRLLITYASQSISGIPSRFSGSGSGTDFTLSINSVESEDVGVYFCQQSDSWPLTFGAGTKLELKR
notes: as for B1
B3: XW25-6A2-2F10 (antibody, V domains shown)
VH: B2 VH with M34V, N59S, F60Y, N65S, N66K, Q82E, Y108S
VL: B2 VL with S31N, K39R, L47I, Y50H, A51V, T72I, L73F, V83F, D92N
notes: as for B1
B4: XW25-4F2-5D2 (antibody, V domains shown)
VH: B2 VH with A30P
VL: B2 VL with S31N
notes: Mouse anti-mouse CXCL13 monoclonal antibody from hybridoma
B5: XW25-3B5-3F4 (antibody, V domains shown)
VH: B2 VH with A16T, N28T, A30T, T31S, T58I, N59K, F60Y, N65K, N66S, Q82E
VL: B2 VL with S31N, T49N, S80T, V83F, V85M, D92N
notes: as for B4
B6: XW25-9C10-4B11 (antibody, V domains shown)
VH: B2 VH with N66S
VL: B2 VL
notes: as for B4
B7: XW25-8H6-4F9 (antibody, V domains shown)
VH: B2 VH with F60Y
VL: B2 VL with S30N, S31N, K39E, V83F, D92N
notes: as for B4
B8: XW25-7C7-5E5 (antibody, V domains shown)
VH: B2 VH with Q82H
VL: B2 VL with S28N, S30N, S31N, A51T
notes: as for B4

Numbering of substitutions follows the chain as printed.

For one test, the target named is T1, recombinant purified mouse CXCL13 (mouse, UniProt O55038 22-109, biotinylated in the ELISA of Example 1.1.A.1 (sites not given); unlabelled in Biacore).
T1 sequence: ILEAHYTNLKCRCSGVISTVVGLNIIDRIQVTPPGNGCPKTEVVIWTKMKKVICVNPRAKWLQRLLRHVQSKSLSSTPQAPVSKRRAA
Briefly: cell-based or functional assay.
As for B1, the “Average Kb (nM) Chemotaxis Assay” value was determined as 18.9 nM.
For B2, the “Average Kb (nM) Chemotaxis Assay” value came to 23 nM.
With B3, the “Average Kb (nM) Chemotaxis Assay” value is 8.12 nM.
B4: the “Average Kb (nM) Chemotaxis Assay” value came out at 16 nM.

The target in another test is T1, recombinant purified mouse CXCL13. Put plainly: ELISA, antibody captured by goat anti-mouse IgG Fc, biotinylated mouse CXCL13 detected with streptavidin-HRP. On the procedure: ELISA plates (Corning Costar, Acton, Mass.) were coated with 50 μL/well of 5 μg/ml goat anti-mouse IgG Fc specific (Pierce # 31170, Rockford, Ill.) in Phosphate Buffered Saline (PBS) overnight at 4 degrees Celsius. Plates were washed once with PBS containing 0.05% Tween-20. Plates were blocked by addition of 200 μL/well blocking solution diluted to 2% in PBS (BioRad #170-6404, Hercules, Calif.) for 1 hour at room temperature. Plates were washed once after blocking with PBS containing 0.05% Tween-20.
Fifty microliters per well of mouse sera or hybridoma supernatants diluted in PBS containing 0.1% Bovine Serum Albumin (BSA) (Sigma, St. Louis, Mo.) was added to the ELISA plate prepared as described above and incubated for 1 hour at room temperature. Wells were washed three times with PBS containing 0.05% Tween-20. Fifty microliters of biotinylated recombinant purified mouse CXCL13 diluted to 100 ng/mL in PBS containing 0.1% BSA was added to each well and incubated for 1 hour at room temperature. Plates were washed 3 times with PBS containing 0.05% Tween-20. Streptavidin HRP (Pierce # 21126, Rockland, Ill.) was diluted 1:20000 in PBS containing 0.1% BSA; 50 μL/well was added and the plates incubated for 1 hour at room temperature. Plates were washed 3 times with PBS containing 0.05% Tween-20. Fifty microliters of TMB solution (Sigma # T0440, St. Louis, Mo.) was added to each well and incubated for 10 minutes at room temperature. The reaction was stopped by addition of 1N sulphuric acid. Plates were read spectrophotmetrically at a wavelength of 450 nm.
Background: ELISA stands for enzyme-linked immunosorbent assay.
B1: the EC50 was found to be 0.03 nM.
With B2, the EC50 worked out at 0.02 nM.
Same read-out and setting: in the case of B5 it was 0.04 nM.
On the same count and under the same terms, in the case of B3 it was 0.02 nM; in that of B4, 0.02 nM; in that of B6, 0.01 nM.
Regarding B7, the EC50 is 0.03 nM.
B8: the EC50 was determined as 0.02 nM.

For another test the target is unchanged. Put plainly: SPR (Biacore), antibody captured by goat anti-mouse IgG Fc, mouse CXCL13 injected at 0.78-50 nM, 25 C. Here is the method:
Binding of antibodies to recombinant purified mouse CXCL13 were determined by surface plasmon resonance-based measurements with a Biacore® 2000 and 3000 instruments (Biacore® AB, Uppsala, Sweden) using running HBS-EP (10 mM HEPES pH 7.4, 150 mM NaCl, 3 mM EDTA, and 0.015% surfactant P20) at 25° C. Experimental data from all kinetic rate determinations of the antibody-antigen reaction were analyzed using Biaevaluation software version 4.0.1.
Mouse Anti Mouse CXCL13 antibodies to be captured as a ligand on the carboxymethyl dextran matrix were diluted in HBS-EP with 0.015% P20 at a concentration of 5-μg/mL. 50-100 μL aliquots were injected over the covalently coupled goat anti-mouse IgG Fc polyclonal antibody biosensor matrices at a flow rate of 25-50 μL/min. The net difference in the baseline signal and the signal after the completion of antibody injection was taken to represent the amount of bound Mouse Anti Mouse CXL13 antibody. Biosensor matrices were typically regenerated with subsequent 25 μL injections of 10 mM Glycine (pH 1.5) before the injection of the next sample. Glycine treatment disrupts the association of non-covalently bound proteins thus Anti CXCL13 antibody-mouse CXCL13 complex dissociates and washes off. The anti-mouse IgG antibody immobilized surfaces were completely regenerated. Aliquots of mouse CXCL13 antigen were injected at a flow rate of 25-50 μL/min over Anti CXCL13 purified monoclonal antibodies captured on the biosensor chips. The concentrations of mouse CXCL13 was ranging between 0.78-50 nM. HBS-EP with 0.015% P20 was flowed through each flow cell in between various cycles of antigens and also immediately before and after the end of kinetic analysis. The signal stabilized 120-180 seconds after the completion of the injection cycle. The net difference in signal between the baseline and the point corresponding to approximately 30 seconds after the completion of antigen injections was taken to represent the amount of antigen bound. The response was measured in resonance units (RU) representing the mass of bound CXCL13 antigen. CXCL13 antigen was also simultaneously injected over the goat anti mouse IgG Fc or goat IgG reference and reaction CM4 surface to record any nonspecific binding background.
A general note: SPR reads the build-up and loss of mass on a sensor chip optically.
In the case of B1, the kon is 1e+06 M⁻¹ s⁻¹.
In the case of B2, the Kd stood at 0.013 nM, the koff stood at 3.6e-05 s⁻¹ and the kon is 2.7e+06 M⁻¹ s⁻¹.
For the molecule B3, the Kd worked out at 0.002 nM, the koff came to 2.7e-06 s⁻¹ and the kon turned out to be 1.6e+06 M⁻¹ s⁻¹.

In general, EC50 refers to the concentration at which the effect is half-maximal. One may read the kon as the rate constant with which the complex forms. Usually Kd stands for a measure of binding affinity in units of concentration. Usually koff stands for a measure of how fast the partners let go of each other.

(Values after patent publication US20080227704A1 (published 2008).)
